Values of other authors as cited in publication PMC9792189.

target: SARS-CoV-2 S1/RBD (target in cited aptamer papers) (SARS-CoV-2) (UniProt P0DTC2); experiment: SPR

| Sequence | Kd |
| --- | --- |
| TTCCGGTTAATTTATGCTCTACCCGTCCACCTACCGGAATTTTTTTTTTTTTTTTTTTTTTTTTTTTTTACGGGTTTGGCGTCGGGCCTGGCGGGGGGATAGTGCGGT [DSA1N5] | 0.51 nM |
| GGGGTGGGGTAGTGGTATGGAGCG [XN-268s] | 4.26 nM |
| TTCCGGTTAATTTATGCTCTACCCGTCCACCTACCGGAA [MSA1T] | 2.8 nM |
| TCGAGTGGCTTGTTTGTAATGTAGGGTTCCGGTCGTGGGT [Aptamer-1] | 28 nM |
| AAAGCCACAACGAGCTCGGGTGAAAGCAGTCCGTTGAGTAGGCTTGCGGCTGCGTGGCATATCGATT [SSapt1] | 105 nM |
| ATTACCGATGGCTTGTTTGTAATGTAGGGTTCCGTCGGAT [Aptamer-2] | 27 nM |
| CAGCACCGACCTTGTGCTTTGGGAGTGCTGGTCCAAGGGCGTTAATGGACA [CoV2-RBD-1C] | 3.1 nM |
| ACGGGTTTGGCGTCGGGCCTGGCGGGGGGATAGTGCGGT [MSA5T] | 10.1 nM |
